The source of these data is PMC3201880 (Nucleic Acids Research, 2011).

The series “cross-linking” concerns the molecule itself. Description: cross-linking.
Series [1] concerns the target T1, TnpA-His6 (IS608 transposase) (Helicobacter pylori (IS608), UniProt Q933Z0 1-155).
T1 sequence: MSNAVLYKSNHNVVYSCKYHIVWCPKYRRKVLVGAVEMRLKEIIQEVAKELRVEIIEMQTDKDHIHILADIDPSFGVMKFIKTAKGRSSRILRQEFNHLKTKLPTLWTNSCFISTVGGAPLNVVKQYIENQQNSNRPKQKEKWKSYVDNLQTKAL
Briefly: EMSA.

The target of series [2] is T1, TnpA-His6 (IS608 transposase). Description: EMSA. The source holds these as a separate data set.
The target is the same in series [3]. Description: EMSA. The source holds these as a separate data set.

Read-outs that look alike come from different tables or passages of the source.

B1: TnpA-His6 (transposase of IS608) (enzyme, Helicobacter pylori, UniProt Q933Z0 1-155, looked up)
chain: MSNAVLYKSNHNVVYSCKYHIVWCPKYRRKVLVGAVEMRLKEIIQEVAKELRVEIIEMQTDKDHIHILADIDPSFGVMKFIKTAKGRSSRILRQEFNHLKTKLPTLWTNSCFISTVGGAPLNVVKQYIENQQNSNRPKQKEKWKSYVDNLQTKAL
Regarding B1, the “stoichiometry N” value in the series “cross-linking” was determined as 2.

B2: RE70 (ssDNA)
DNA: TTCCTCATGCTTTAGCTAGAATCCCCTAGCTTTAGCTATGGGGAGTATGTCAACAAATTTGCCTAATGAC
On to B2, for which the binding result in series [1] is listed as “binds”. GCTTTAGCTAGAATCCCCTAGCTTTAGCTATGGGGAGTATGTCAATTCG (ssDNA) [RE49]: the binding result in series [2] was “binds”.

Consider GCTTTAGCTAGAATCCCCTAGCTTTAGCTATGGGGAGTATGTCAA (ssDNA) [RE45_pc (precleaved)], for which the binding result in series [3] is listed as “binds”.

B3: RE56 (ssDNA)
DNA: CTCATGCTTTAGCTAGAATCCCCTAGCTTTAGCTATGGGGAGTATGTCAACAAATT
Consider B3, for which the binding result in series [3] is on record as “binds”. The same measure, in the same setting: the result for GAATCCCCTAGCTTTAGCTATGGGGAGTATGTCAACAAATTTGCC (ssDNA) [RE45] reads “binds”.

B4: LE80 (ssDNA)
DNA: CGCTAGTGCAAAAATTACCAAAACTAACGCCTTAAAGCCCCTAGCTTTTAGCTATGGGGATACAAGGCGAAACGCCTTTA
For B4, the binding result in series [1] is listed as “binds”.
